Where a chain is given by its changes, count along the chain named. Each block holds one binder with its values, some of them ahead of it.
Key:
Assay in all cases: holdup assay
Parameters in all cases: key: below the threshold = too weak to quantify, mostly under pKd 3.1 to 4
PDZD7_3, Q9H5P4 = target: T1, PDZD7_3, Q9H5P4; settings: plain residues with an end cap or a label only (N-terminal biotin on a linker: ahx)
T1 sequence (Q9H5P4 857-944, limits assumed, looked up): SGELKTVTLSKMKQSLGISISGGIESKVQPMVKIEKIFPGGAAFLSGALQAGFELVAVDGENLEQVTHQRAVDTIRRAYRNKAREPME

MPDZ_10, O75970 = target: T2, MPDZ_10, O75970; settings: plain residues with an end cap or a label only (N-terminal biotin on a linker: ahx)
T2 sequence (O75970 1624-1722, limits assumed, looked up): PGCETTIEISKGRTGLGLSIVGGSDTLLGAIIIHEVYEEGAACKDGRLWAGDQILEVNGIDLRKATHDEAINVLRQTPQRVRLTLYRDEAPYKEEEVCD

PDZRN3_1, Q9UPQ7 = target: T3, PDZRN3_1, Q9UPQ7; settings: plain residues with an end cap or a label only (N-terminal biotin on a linker: ado-ado)
T3 sequence (Q9UPQ7 244-349, limits assumed, looked up): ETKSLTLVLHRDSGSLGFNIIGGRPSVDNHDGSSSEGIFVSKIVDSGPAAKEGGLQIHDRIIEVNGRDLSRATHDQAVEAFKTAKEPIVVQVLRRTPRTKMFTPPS

LIN7B, Q9HAP6 = target: T4, LIN7B, Q9HAP6; settings: plain residues with an end cap or a label only (N-terminal biotin on a linker: ado-ado)
T4 sequence (Q9HAP6 88-185, limits assumed, looked up): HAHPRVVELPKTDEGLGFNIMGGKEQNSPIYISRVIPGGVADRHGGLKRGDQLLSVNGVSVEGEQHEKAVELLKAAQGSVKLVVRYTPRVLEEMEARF

HTRA1, Q92743 = settings: plain residues with an end cap or a label only (N-terminal biotin on a linker: ado-ado)
LAP2, Q96RT1 = settings: plain residues with an end cap or a label only (N-terminal biotin on a linker: ado-ado)
DLG2_3, Q15700 = settings: plain residues with an end cap or a label only (N-terminal biotin on a linker: ado-ado)
SCRIB_2, Q14160 = settings: plain residues with an end cap or a label only (N-terminal biotin on a linker: ado-ado)
MPDZ_12, O75970 = target: T5, MPDZ_12, O75970; settings: plain residues with an end cap or a label only (N-terminal biotin on a linker: ado-ado)
T5 sequence (O75970 1857-1958, limits assumed, looked up): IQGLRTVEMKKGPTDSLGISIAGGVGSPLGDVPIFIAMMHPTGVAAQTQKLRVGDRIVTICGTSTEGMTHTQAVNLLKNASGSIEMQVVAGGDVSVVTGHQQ

PDLIM1, O00151 = settings: plain residues with an end cap or a label only (N-terminal biotin on a linker: ado-ado)
LIN7C, Q9NUP9 = target: T6, LIN7C, Q9NUP9; settings: plain residues with an end cap or a label only (N-terminal biotin on a linker: ado-ado)
T6 sequence (Q9NUP9 88-185, limits assumed, looked up): T4 sequence (Q9HAP6 88-185, limits assumed, looked up) with A2S, D13E, V35I, V40I, Q65H, S79K, R89K, A96S

MAGI2_4, Q86UL8 = target: MAGI2_4, Q86UL8
SNX27, Q96L92 = settings: plain residues with an end cap or a label only (N-terminal biotin on a linker: ahx)
DLG3_3, Q92796 = target: T7, DLG3_3, Q92796; settings: plain residues with an end cap or a label only (N-terminal biotin on a linker: ahx)
T7 sequence (Q92796 374-475, limits assumed, looked up): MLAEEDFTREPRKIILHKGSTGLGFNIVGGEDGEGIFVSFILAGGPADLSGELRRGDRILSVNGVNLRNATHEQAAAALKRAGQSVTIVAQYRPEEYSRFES

ARHGEF12, Q9NZN5-2 = settings: plain residues with an end cap or a label only (N-terminal biotin on a linker: ahx)
DLG2_2, Q15700 = settings: plain residues with an end cap or a label only (N-terminal biotin on a linker: ahx)
SHANK1, Q9Y566 = target: T8, SHANK1, Q9Y566; settings: plain residues with an end cap or a label only (N-terminal biotin on a linker: ahx)
T8 sequence (Q9Y566 658-767, limits assumed, looked up): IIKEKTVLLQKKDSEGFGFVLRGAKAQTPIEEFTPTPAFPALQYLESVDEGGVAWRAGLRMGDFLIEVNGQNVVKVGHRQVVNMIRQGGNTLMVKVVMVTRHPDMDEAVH

SNTB1, Q13884 = target: T9, SNTB1, Q13884; settings: plain residues with an end cap or a label only (N-terminal biotin on a linker: ahx)
T9 sequence (Q13884 107-205, limits assumed, looked up): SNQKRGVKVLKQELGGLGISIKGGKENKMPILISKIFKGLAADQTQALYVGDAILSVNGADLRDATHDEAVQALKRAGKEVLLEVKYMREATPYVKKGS

SYNJ2BP, P57105 = target: T10, SYNJ2BP, P57105; settings: plain residues with an end cap or a label only (N-terminal biotin on a linker: ahx)
T10 sequence (P57105 8-110, limits assumed, looked up): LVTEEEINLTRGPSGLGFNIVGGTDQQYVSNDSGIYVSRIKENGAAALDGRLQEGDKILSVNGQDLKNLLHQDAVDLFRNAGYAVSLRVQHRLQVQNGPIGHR

PARD3_3, Q8TEW0 = settings: plain residues with an end cap or a label only (N-terminal biotin on a linker: ahx)
SNTA1, Q13424 = target: T11, SNTA1, Q13424
T11 sequence (Q13424 82-180, limits assumed, looked up): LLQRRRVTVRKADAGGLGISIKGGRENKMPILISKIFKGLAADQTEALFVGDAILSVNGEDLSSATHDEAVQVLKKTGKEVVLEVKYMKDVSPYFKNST

MAGI1_2, Q96QZ7 = settings: plain residues with an end cap or a label only (N-terminal biotin on a linker: ado-ado)
DLG4_1, P78352 = settings: plain residues with an end cap or a label only (N-terminal biotin on a linker: ado-ado)
MAGI3_2, Q5TCQ9 = settings: plain residues with an end cap or a label only (N-terminal biotin on a linker: ado-ado)
MAGI2_2, Q86UL8 = settings: plain residues with an end cap or a label only (N-terminal biotin on a linker: ado-ado)
Inadl_8, Q8NI35 = settings: plain residues with an end cap or a label only (N-terminal biotin on a linker: ado-ado)
MAGI2_5, Q86UL8 = settings: plain residues with an end cap or a label only (N-terminal biotin on a linker: ado-ado)
LNX1_1, Q8TBB1 = settings: plain residues with an end cap or a label only (N-terminal biotin on a linker: ado-ado)
SCRIB_1, Q14160 = settings: plain residues with an end cap or a label only (N-terminal biotin on a linker: ado-ado)
RHPN1, Q8TCX5 = target: T12, RHPN1, Q8TCX5; settings: plain residues with an end cap or a label only (N-terminal biotin on a linker: ado-ado)
T12 sequence (Q8TCX5 508-602, limits assumed, looked up): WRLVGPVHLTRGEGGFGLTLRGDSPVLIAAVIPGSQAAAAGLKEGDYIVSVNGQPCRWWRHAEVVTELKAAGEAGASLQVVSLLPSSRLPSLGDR

TJP2_1, Q9UDY2 = settings: plain residues with an end cap or a label only (N-terminal biotin on a linker: ado-ado)
DFNB31_1, Q9P202 = target: T13, DFNB31_1, Q9P202; settings: plain residues with an end cap or a label only (N-terminal biotin on a linker: ado-ado)
T13 sequence (Q9P202 135-233, limits assumed, looked up): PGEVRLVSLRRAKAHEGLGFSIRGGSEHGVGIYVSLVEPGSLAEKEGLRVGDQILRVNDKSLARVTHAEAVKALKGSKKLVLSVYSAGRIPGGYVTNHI

PTPN3, P26045 = settings: plain residues with an end cap or a label only (N-terminal biotin on a linker: ado-ado)
LNX1_2, Q8TBB1 = settings: plain residues with an end cap or a label only (N-terminal biotin on a linker: ado-ado)
HTRA2, O43464 = settings: plain residues with an end cap or a label only (N-terminal biotin on a linker: ado-ado)
SNTG2, Q9NY99 = target: T14, SNTG2, Q9NY99; settings: plain residues with an end cap or a label only (N-terminal biotin on a linker: ado-ado)
T14 sequence (Q9NY99 68-166, limits assumed, looked up): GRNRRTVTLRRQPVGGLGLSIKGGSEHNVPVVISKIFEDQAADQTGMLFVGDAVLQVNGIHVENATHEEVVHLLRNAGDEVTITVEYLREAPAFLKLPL

TJP1_2, Q07157 = settings: plain residues with an end cap or a label only (N-terminal biotin on a linker: ado-ado)
Inadl_3, Q8NI35 = settings: plain residues with an end cap or a label only (N-terminal biotin on a linker: ado-ado)
HTRA3, P83110 = target: T15, HTRA3, P83110; settings: plain residues with an end cap or a label only (N-terminal biotin on a linker: ado-ado)
T15 sequence (P83110 354-453, limits assumed, looked up): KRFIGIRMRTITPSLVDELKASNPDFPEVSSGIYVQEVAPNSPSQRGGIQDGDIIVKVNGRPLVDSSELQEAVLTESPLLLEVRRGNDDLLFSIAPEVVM

IL16_4, Q14005 = settings: plain residues with an end cap or a label only (N-terminal biotin on a linker: ado-ado)
PARD3B_1, Q8TEW8 = target: T16, PARD3B_1, Q8TEW8; settings: plain residues with an end cap or a label only (N-terminal biotin on a linker: ado-ado)
T16 sequence (Q8TEW8 196-299, limits assumed, looked up): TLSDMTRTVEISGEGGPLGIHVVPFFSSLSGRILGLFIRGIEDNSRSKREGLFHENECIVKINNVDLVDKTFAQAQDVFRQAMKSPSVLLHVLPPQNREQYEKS

ARHGAP21, Q5T5U3 = target: T17, ARHGAP21, Q5T5U3; settings: plain residues with an end cap or a label only (N-terminal biotin on a linker: ado-ado)
T17 sequence (Q5T5U3 45-169, limits assumed, looked up): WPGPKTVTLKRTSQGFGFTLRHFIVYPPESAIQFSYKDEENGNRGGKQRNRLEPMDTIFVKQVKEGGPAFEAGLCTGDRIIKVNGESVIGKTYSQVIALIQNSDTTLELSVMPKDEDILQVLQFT

Inadl_9, Q8NI35 = settings: plain residues with an end cap or a label only (N-terminal biotin on a linker: ado-ado)
[1] = plain residues with an end cap or a label only (N-terminal biotin on a linker: ahx)
[2] = plain residues with an end cap or a label only (N-terminal biotin on a linker: ado-ado)

Sequence of MAGI2_4, Q86UL8 (Q86UL8 772-865): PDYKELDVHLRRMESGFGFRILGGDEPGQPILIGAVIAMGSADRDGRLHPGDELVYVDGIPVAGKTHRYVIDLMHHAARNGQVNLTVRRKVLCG
Sequence of HTRA1, Q92743 (Q92743 360-477): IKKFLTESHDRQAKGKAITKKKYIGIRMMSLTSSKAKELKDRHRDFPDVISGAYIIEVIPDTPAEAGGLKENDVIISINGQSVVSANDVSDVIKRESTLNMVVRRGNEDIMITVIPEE
Sequence of TJP2_1, Q9UDY2 (Q9UDY2 24-128): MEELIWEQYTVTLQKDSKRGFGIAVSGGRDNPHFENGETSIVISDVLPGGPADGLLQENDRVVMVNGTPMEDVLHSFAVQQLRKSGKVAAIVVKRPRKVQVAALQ
Sequence of LNX1_2, Q8TBB1 (Q8TBB1 371-470): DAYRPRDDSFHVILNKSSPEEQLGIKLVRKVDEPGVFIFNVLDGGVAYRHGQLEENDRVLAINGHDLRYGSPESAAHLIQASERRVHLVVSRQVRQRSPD
Sequence of MAGI2_2, Q86UL8 (Q86UL8 410-522): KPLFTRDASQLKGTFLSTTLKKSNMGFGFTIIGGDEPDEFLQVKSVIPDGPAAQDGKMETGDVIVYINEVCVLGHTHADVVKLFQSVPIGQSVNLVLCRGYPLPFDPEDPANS
Sequence of PARD3_3, Q8TEW0 (Q8TEW0 582-685): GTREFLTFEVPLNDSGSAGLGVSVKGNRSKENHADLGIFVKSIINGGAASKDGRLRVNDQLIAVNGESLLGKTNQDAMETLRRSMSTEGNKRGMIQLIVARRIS
Sequence of MAGI2_5, Q86UL8 (Q86UL8 915-1017): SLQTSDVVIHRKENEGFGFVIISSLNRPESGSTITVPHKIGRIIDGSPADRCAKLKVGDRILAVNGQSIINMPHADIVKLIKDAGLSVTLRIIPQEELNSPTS
Sequence of SCRIB_1, Q14160 (Q14160 718-814): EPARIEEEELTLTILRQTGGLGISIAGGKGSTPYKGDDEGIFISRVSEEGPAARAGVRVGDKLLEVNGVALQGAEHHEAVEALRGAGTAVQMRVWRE
Sequence of IL16_4, Q14005 (Q14005 1229-1329): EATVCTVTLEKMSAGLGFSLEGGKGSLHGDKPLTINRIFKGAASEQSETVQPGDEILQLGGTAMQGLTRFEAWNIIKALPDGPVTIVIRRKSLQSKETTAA
Sequence of HTRA2, O43464 (O43464 355-458): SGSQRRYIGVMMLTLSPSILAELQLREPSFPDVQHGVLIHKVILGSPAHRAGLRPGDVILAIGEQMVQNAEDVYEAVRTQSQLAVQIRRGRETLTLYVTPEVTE
Sequence of Inadl_8, Q8NI35 (Q8NI35 1425-1530): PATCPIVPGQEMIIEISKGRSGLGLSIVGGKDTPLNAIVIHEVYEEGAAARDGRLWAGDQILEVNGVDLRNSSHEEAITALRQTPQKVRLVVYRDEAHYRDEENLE
Sequence of Inadl_3, Q8NI35 (Q8NI35 359-469): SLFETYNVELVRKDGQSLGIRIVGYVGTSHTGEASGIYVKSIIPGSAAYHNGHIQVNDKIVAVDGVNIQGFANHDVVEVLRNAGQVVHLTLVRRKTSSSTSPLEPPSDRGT
Sequence of LNX1_1, Q8TBB1 (Q8TBB1 261-371): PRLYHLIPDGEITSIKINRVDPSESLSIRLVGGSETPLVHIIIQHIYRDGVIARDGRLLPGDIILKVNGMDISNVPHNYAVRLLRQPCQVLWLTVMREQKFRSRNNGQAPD
Sequence of ARHGEF12, Q9NZN5-2 (Q9NZN5 other isoform, or with tags, fused parts or gaps): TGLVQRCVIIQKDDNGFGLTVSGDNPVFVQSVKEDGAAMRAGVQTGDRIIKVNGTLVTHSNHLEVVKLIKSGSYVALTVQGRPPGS
Sequence of MAGI1_2, Q96QZ7 (Q96QZ7 456-580): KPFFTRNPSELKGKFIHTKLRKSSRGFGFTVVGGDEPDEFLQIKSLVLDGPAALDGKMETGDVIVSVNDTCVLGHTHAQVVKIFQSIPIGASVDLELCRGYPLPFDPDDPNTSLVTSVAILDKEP
Sequence of DLG4_1, P78352 (P78352 62-152): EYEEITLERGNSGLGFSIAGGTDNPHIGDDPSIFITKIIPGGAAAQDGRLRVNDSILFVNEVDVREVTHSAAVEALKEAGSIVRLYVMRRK
Sequence of LAP2, Q96RT1 (Q96RT1 other isoform, or with tags, fused parts or gaps): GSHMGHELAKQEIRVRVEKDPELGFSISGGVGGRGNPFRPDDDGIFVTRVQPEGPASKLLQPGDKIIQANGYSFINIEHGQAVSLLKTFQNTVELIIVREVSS
Sequence of PTPN3, P26045 (P26045 505-587): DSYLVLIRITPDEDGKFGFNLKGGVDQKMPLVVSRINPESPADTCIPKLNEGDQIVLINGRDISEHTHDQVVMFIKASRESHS
Sequence of SCRIB_2, Q14160 (Q14160 857-960): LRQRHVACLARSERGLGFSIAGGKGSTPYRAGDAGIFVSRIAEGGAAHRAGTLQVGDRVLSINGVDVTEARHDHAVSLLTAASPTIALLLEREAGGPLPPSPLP
Sequence of PDLIM1, O00151 (O00151 1-87): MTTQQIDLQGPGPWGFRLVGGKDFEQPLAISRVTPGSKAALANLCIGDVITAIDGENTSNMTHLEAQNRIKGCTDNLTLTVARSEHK
Sequence of TJP1_2, Q07157 (Q07157 181-274): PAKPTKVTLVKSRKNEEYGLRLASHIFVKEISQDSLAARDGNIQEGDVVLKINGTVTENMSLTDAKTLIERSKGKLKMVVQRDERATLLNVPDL
Sequence of Inadl_9, Q8NI35 (Q8NI35 1530-1615): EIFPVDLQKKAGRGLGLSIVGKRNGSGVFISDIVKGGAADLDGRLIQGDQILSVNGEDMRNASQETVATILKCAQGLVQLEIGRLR
Sequence of MAGI3_2, Q5TCQ9 (Q5TCQ9 398-503): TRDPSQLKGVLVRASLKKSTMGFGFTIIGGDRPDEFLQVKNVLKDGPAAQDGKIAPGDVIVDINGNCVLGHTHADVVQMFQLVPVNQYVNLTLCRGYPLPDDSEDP

Binder: YLEPVLSSEL [ATP2A2, P16615]
pKd (PDZRN3_1, Q9UPQ7): 3.7
pKd (LIN7B, Q9HAP6): 3.83
pKd (HTRA1, Q92743): 3.62
pKd (LAP2, Q96RT1): 3.53
pKd (DLG2_3, Q15700): 3.66
pKd (SCRIB_2, Q14160): 3.56
pKd (MPDZ_12, O75970): 3.55
pKd (PDLIM1, O00151): 3.48
pKd (LIN7C, Q9NUP9): 3.8

Binder: LSDPSVSTVV [GRIN1, Q05586]
pKd (MAGI2_4, Q86UL8; [1]): 3.83
pKd (SNX27, Q96L92): 3.61
pKd (DLG3_3, Q92796): 3.57
pKd (ARHGEF12, Q9NZN5-2): 3.71
pKd (DLG2_2, Q15700): 3.71
pKd (SHANK1, Q9Y566): 3.72
pKd (SNTB1, Q13884): 3.55
pKd (SYNJ2BP, P57105): 3.72
pKd (PARD3_3, Q8TEW0): 3.56
pKd (SNTA1, Q13424; [1]): 3.68

The next lines start with the values.

pKd (PDZD7_3, Q9H5P4): 3.48
pKd (MPDZ_10, O75970): 3.76
Binder: PSASCAVTAA [PDLIM4, P50479]

pKd (PDZRN3_1, Q9UPQ7): 3.77
pKd (MAGI1_2, Q96QZ7): 3.8
pKd (DLG4_1, P78352): 3.51
pKd (HTRA1, Q92743): 3.73
pKd (MAGI3_2, Q5TCQ9): 3.69
pKd (MAGI2_2, Q86UL8): 3.87
pKd (Inadl_8, Q8NI35): 3.52
pKd (MAGI2_5, Q86UL8): 3.69
pKd (LNX1_1, Q8TBB1): 3.72
pKd (SCRIB_1, Q14160): 3.82
pKd (RHPN1, Q8TCX5): 3.82
pKd (SNTA1, Q13424; [2]): 3.71
pKd (TJP2_1, Q9UDY2): 3.54
pKd (DFNB31_1, Q9P202): 3.73
Binder: LPAHHNATRL [SLC34A1, Q06495]

pKd (MAGI2_4, Q86UL8; [2]): 3.56
pKd (PTPN3, P26045): 3.87
pKd (LNX1_2, Q8TBB1): 3.54
pKd (HTRA2, O43464): 3.69
pKd (SNTG2, Q9NY99): 3.48
pKd (TJP1_2, Q07157): 3.52
pKd (Inadl_3, Q8NI35): 3.54
pKd (HTRA3, P83110): 3.62
pKd (IL16_4, Q14005): 3.83
pKd (PARD3B_1, Q8TEW8): 3.6
pKd (ARHGAP21, Q5T5U3): 3.8
pKd (Inadl_9, Q8NI35): 3.57
Binder: VYPNAKVELV [PDLIM4_iso2, P50479]

— paper PMC9482650, “Quantitative fragmentomics allow affinity mapping of interactomes” (Nature Communications, 2022)
